Data from article PMC10939407 (Nucleic Acids Research, 2023).

Molecular target: MBP-DHX15-His10 (human, UniProt O43143 1-795)
Assay: pull-down

Chain of MBP-DHX15-His10 (O43143 whole entry): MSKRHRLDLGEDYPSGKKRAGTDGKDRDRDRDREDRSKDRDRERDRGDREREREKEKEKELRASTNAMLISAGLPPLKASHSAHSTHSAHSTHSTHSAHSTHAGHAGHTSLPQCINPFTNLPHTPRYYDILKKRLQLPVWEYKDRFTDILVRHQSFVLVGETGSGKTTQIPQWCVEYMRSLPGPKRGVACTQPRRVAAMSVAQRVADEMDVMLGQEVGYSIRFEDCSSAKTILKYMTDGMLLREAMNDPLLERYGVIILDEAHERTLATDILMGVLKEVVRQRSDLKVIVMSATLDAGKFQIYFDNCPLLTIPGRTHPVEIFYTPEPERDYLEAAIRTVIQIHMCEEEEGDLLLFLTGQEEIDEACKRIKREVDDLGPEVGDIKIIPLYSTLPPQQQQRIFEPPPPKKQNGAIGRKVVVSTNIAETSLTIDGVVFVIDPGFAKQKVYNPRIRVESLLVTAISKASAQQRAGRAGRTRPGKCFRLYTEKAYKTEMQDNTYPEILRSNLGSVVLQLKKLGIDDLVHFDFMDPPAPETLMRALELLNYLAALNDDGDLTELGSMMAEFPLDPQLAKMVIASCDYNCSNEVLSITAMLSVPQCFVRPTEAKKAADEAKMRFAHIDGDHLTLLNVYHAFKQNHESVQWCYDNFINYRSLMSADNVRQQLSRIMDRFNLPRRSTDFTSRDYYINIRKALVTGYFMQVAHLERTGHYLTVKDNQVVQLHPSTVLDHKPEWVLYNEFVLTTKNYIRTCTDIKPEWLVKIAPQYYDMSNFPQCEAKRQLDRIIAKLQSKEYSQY

binding result: binds
B1: ZZ-GPATCH4GP-His7 (G-patch domain of GPATCH4, amino acids 11 to 57) (domain or fragment)
chain: GMKFAEEQLLKHGWTQGKGLGRKENGITQALRVTLKQDTHGVGHDPA
